From the nanobody polyreactivity screen of Harvey et al. (2022)

Test: yeast display, Sf9 membrane polyspecificity reagent, FACS + sequencing; frameworks hold sequencing errors
Outline: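 Nanobodies came from a synthetic yeast display library in Saccharomyces cerevisiae BJ5465, induced with galactose for 36–48 hours and stained for 1 hour at 4 °C with 10% biotinylated, detergent-solubilized Sf9 membrane reagent. Cells were enriched on streptavidin microbeads and then FACS-sorted, with low and high (top ~1%) gates set on anti-HA fluorescence for expression and streptavidin fluorescence for reagent binding. Each polyreactivity label reflects the gate a clone came from. Genes were amplified by colony PCR, sequenced by MiSeq 2 × 250 and filtered by CDR length.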

Row | Sequence | polyreactivity (PSR sort gate)
1 | QVQLVESGGGLVQAGGSLRLSCSASGSTIPVYAMGWYRQPPGKERELVAAITGSGARTYYADSVKGRFTFSRDNAKNTVYLQMNSLKPEDTAVYYCAKRTVIAVYGFPYRYGMNYWGQGTQVTVSS | high polyreactivity
2 | QVQLVESGGGLVQAGGSLRLSCAASGFIYSTYAMGWYRQAPGKERELVAAISWSGGRTNYADSVKGRFTISRDNAKNTVYLQMNSLKPEDTAVYYCAVGGERGARIGSNHRGSRYDYWGQGTQVTVSS | high polyreactivity
3 | QVQLVESGGGLVQAGGSLRLSCAASGRIFTKYAMGWYRQAPGKERELVAAITTSGGSTYYADSVKGRFTISRDNAKNTVYLQMNSLKPEDTAVYYCAARTYHRYDYWGQGTQVTVSS | high polyreactivity
4 | QVQLVESGGGLVQAGGSLRLSCAASGIIFRKYAMGWYRQAPGKERELVAAISWRGGSTYYADSVKGRFTISRDNAKNTVYLQMNSLKPEDTAVYYCAAVAQITGYDYWGQGTQVTVSS | high polyreactivity
5 | QVQLVESGGGLVQAGGSLRLSCAASGFIFYAYDMGWYRQAPGKERELVAAISRVGSTYYADSVKGRFTISRDNAKNTVYLQMNSLKPEDTAVYYCATKFGTTRGFGYWGQGTQVTVSS | high polyreactivity
6 | QVQLVESGGGLVQAGGSLRLSCAASGRIFKRNAMGWYRQAPGKERELVAAISWRGGSTYYADSVKGRFTISRDNAKNTVYLQMNSLKPEDTAVYYCNVGYGGSSDGGYDYWGQGTQVTVSS | high polyreactivity
7 | QVQLEESGGGLVQAGGSLRLSCAASGPIFVGYAMGWSRQAPGKEREFLAAISRDGDNTFYADSVKGRFTISRDYAKNTVYLQMYSLKPEDTAVYYCAVDYWVWYGCAYAYDYYWGQGTQVSVSS | low polyreactivity
8 | QVQLVESGGGLVQAGGSLRLSCAAYGRISAMGWYRQAPGKERELVAAISRGGSTYYADSVKGRFTISRDNAKNTVYLQMNSLKPEDTAVYYCARRYASTGYDYWGQGTQVTVSS | high polyreactivity
9 | QVQLVESGGGLVQAGGSLRLSCAASGSIFSFYAMGWYRQAPGKERELVASITRRGGSTSYADSVKGRFTISRDNAKNTVYLQMNSLKPEDTAVYYCASESKFISVLRVGYYYVKFDYWGQGTQVTVSS | high polyreactivity
10 | QVQLQDSGGGLVQAGGSLRLSCAASGYIFGSGSMGWFRQAPGKERELVATINNGSSTYYADSVKGRFTISRDNAINTVYLQMNSLKPEDTAVYYCAAVRIRPLRYYYWGQGTQVTVSS | high polyreactivity
11 | QVQLVESGGGLVQAGGSLRLSCAASGRIFVGYTMGWYRQAPGKERELVAAISSRGGRTNYADSVKGRFTISRDNAKNTVYLQMNSLKPEDTAVYYCATRLYPHQYYYWGQGSQVTVSS | high polyreactivity
12 | QVQLVESGRGLVQAGGSLRLSCAASGRIFGVYAMGWDRQAPGKERELVAAISGSTTRTYYADSVKGRFTISRDTAKNTVYLQMNSLKPEDTAVYYCAARSYTPSYKMDYWGQGTQVTVSS | high polyreactivity
13 | QVQLVESGGGLVQAGGSLRLSCAASGSIFPFNAMGWYRQAPGKERELVAAISVNGGTTYYADSVKGRFTISRDNAKNTVYLQMNSLKPEDTAVYYCNARRAYLYYVSYRYGYWGQGTQVTVSS | low polyreactivity
14 | QVQLVESGGGLVQAGGSLRISCAASGRTFYNNAMGWYRQAPGTERELVATIHNRGGTTYYADSVKGRFTISRYNAKNTVYLLMNSLKPEDTAVYYCAKSAQRYSYRYYYWGQGTQVTVSS | high polyreactivity
15 | QVQLVESGGGLVQAGGSLRLSCAASGIIFGKYAMGGYRQAPGKERELVAAISSSGGRTYYADSGKGRFTISRDNAKNNVYLQMNSLKPEDTAVYYCAAVPGPGYYHYGYWGQGTQVTVSS | high polyreactivity
16 | QVQLVESGGGLVQAGGSLRLSCAASGRIFYTYVMGWYIQAPGKERELVASISSSGGSTNYADSVKGRFTISRDNAKNTVYLQMNSLKPEDTAVYYCNKDYIHVSYREDYWGQGTQVTVSS | low polyreactivity
17 | QVQLVESGGGLVQAGGSLRLSCAASGSIFGSYAMGWNRQAPGKDREFVAGIDQSGSSTYYADSVKGRFTISRDNAKNTVYLQMNSLKPEDTAVYYCAARHRYRTYKMYYWGQGTQVTVSS | high polyreactivity
18 | QVQLVESGGGLVQARGSLRLSCAASVITFRHNTMGWYRQAPGKERELVSTNYADSVKGRFTISRDNAKNTVYLQMNSLKQEDTAVYYCNADGTFEYDYWGQGTQVTVSS | low polyreactivity
19 | QVQLVESGGGLVQAGGSLRLSCAASGFIFHVYAMGWYRQAPGKEREFVAGISWRGGRTYYADSVKGRFTISRDNAKNTVYLLMNSLKPEDTAVYYCAALGLNAGGKFDYWGQGTQVTVSS | high polyreactivity
20 | QDQLVESGGGLVQAGGSLRLSCAASGSIFVENDMGWYRQAPGKERELVAVITSGGSTYYADSVKGRFTISRDNAKNTVYLQMNSLKPEDTAVYYCNKDYAAIDRYDSWGQGTQVTVSS | low polyreactivity
21 | QVQLVESGGGLVQARGSLRLSWAASGSTFQVYAMGWSRPAPGKERELVAAINYSGGSTYYADSVKGRFTISRDNAKNTVYVLMNSLKPEDTAVYYCAVKLRSRAGTSYGYWGQGTQVTVSS | high polyreactivity

Row | Sequence | polyreactivity (PSR sort gate)
22 | QVQLVESGGGLVQAGGSLRLSCAASGRIFGYYAMGWYRQAPGKERELVAAITSGGRTYYADSVKGRFTISRDNAKNTVFLQMNSLKPEDTAVNYCAAVRALRKVRDYYYWGQGTQVTVSS | high polyreactivity
23 | QVQLVESGGGLVQAGGSLRLSCAASGSTFYLNAMGWYRQAPGKERELVAAIDYRGGSTYYADSVKGRFTISRDNAKNTVYLQMNSLKPEDTAVYYCNADYVYVHYQPGYYWGQGTQVTVSS | low polyreactivity
24 | QVQLVESGGGLVQAGGSLRLSCAASGTTFTRYAMGWYRQAPGKERELVAAISRTGGSRTYYADSVKGRFTISRDNAKNTVYLHMNSLKPEDTAVYYCAKGYWRYLGFLYFFPARDYWGQGTQVTVSS | high polyreactivity
25 | QVQLVESGGGLVQAGGSLRLSCAASGFIFSHYAMGWYRQAPGKERELVAAIRSGGTTNYADSVKGRFTISRDNAKHTVYLQMNSLKPEDTAVYYCAASSRRSWTYDYWGQGTQVTVSS | high polyreactivity
26 | QVQLVESGGGLVQAGGSLRLSCAASGRILYQYAMGWYRQAPGKVRELVASISGRSGRTRYADSVKGRFTISRDIAKNTVSLQMNSLKPEDTAVYYCYAGTSVLKYDYWGQGTQVTVSS | low polyreactivity
27 | QVQLVESGGGLVQAGGSLRLSCAASGITPDYAMGWYRQAPGKERELVAAITWSGGRTYYADSVKGRFTISRDNAKNTVYLQMNSLKPEDTAVYYCAAEHYLGYDYWGQGTQVTVSS | low polyreactivity
28 | QVQLVESGGGLVQAGGSLRLSCAASGRIFYGYAMGWYRQAPGKERELVAAISSGGITYYADSVKGRFTISRDNAKNTVYLQMNSLKPEDTAVYYCAAEPWYKFDYDYWGQGTQVTVSS | low polyreactivity
29 | QVQLVESGGGLVQAGGSLRLSCAASGSIFSYYAMGWYRQAPGKERELVASISWNGTSTYYADSVKGRFTISRDNAKNTVDLQMNSLKPEDTADYYCNVRFNYRGTYDYWGQGTQVTVSS | low polyreactivity
30 | KVQLVESGGGLVQAGGSLRITCAASGSNQASNAMGWYRQAPGKERELVAAIRVSGASTYYADSVKGRFTISRDNAKNTVYLQMKSLKPEYNAVYYCAADYQFGVIYYYWGQGTQVTLSS | low polyreactivity
31 | QVQLVESGGGLVQAGGSLRLSCAASGRTFYYSMGWYRQAPGKERYADSVKGRFTISRDNAKNTVYLQMNSLKPEDTAVYYCSAKVPEPPSLDESDYWGQGTQVTVSS | low polyreactivity
32 | QVQLVESGGGLVQAGGSLRLTCAASGRTFAYNAMGWYRQAPGKERELVAAITSSGTSTYYADSVKGRFTISRDNAKNTVYLQINCLKPEDTAVYYCAGRQSQKYGLFYYWGQGTQVTVSS | high polyreactivity
33 | QVQLVESGGGLVQAGGSRRLSCAASGSTFSSYAKGWYRQAPGQERELVAAISSSGSRTYYADSVKGRFTISRDNAKNTVYLQMNSLKPEDTAVYYCAADYYYNTKLDYWGQGSQVTVSS | high polyreactivity
34 | QVQLVESGGGLVQAGGSLRLSCAASGSTIYKYAMGWYRQAPGKERELVAAISGSGGRTYYADSVKGRFTISRDNAKNTVYLQMNSLKPEDTAVYYCAARPKGGPWEHDYWGQGTQVTVSS | high polyreactivity
35 | QVQLVESGGGLVQAGGSLRLSCAASGGIFRYAMGWYRQAPGKEREFVAAITTRGGSTYYADSVKGRFTISRDNAKNTVYLQMNSLKPEDTAVYYCAARPYSGRNKYDYWGQGTQVTVSS | high polyreactivity
36 | QVQLVESGGGLVQAGGSLRLSCAASGGIFDTYAMGWYRQAPGKERELVAAISANGGETYYADSVKGRFTISRDNAKTTVYLQMNSLKPEDTAVYYCAADGFLPILHPVPWSYYYPFGYWGQGTQVTVSS | low polyreactivity
37 | QVQLVESGGGLVQAGGSLRLSCAASGSIFKYNAMGWYRQAPGKERELVAAIRWSGVGTRYADSVKGRFTISRDNAKNTVYLQMNSLKPEDTAVYYCAADVTKYHDGHEYDYWGQGTQVTVSS | low polyreactivity
38 | QVQLVESGGGLVQAGGSLRLSCAASGRIFYGYAMGWYRQAPGKERELVAAISWRGGRTYYADSVKGRFTISRDNAKNTVYLQMNSLKPEDTAVYYCAVRWPSARIPVKLDYWGQGTQVTVSS | high polyreactivity
39 | QVQLVESGGGLVQAGGSLRLSCAASGSTFPGNAMGWYRQAPGKERELVAAINWSGDSTYYADSVKGRFTISRDNAKNTVYLQMNSLKPEDTAVYYCAAYGDGYYYWGQGTQVTVSS | low polyreactivity
40 | QVQLVESGGGLVQAGGSLRLSCAATGIIFRYAMGWYRQAPGKERELVAAIRKSDGSTYYADSVKGRFTISRDNAKNTVYLQMNSLKPEDTAVYYCATDIVYGNRKGFYYWGQGTQVTVSS | high polyreactivity
41 | QVQLVESGGGLVQAGGSLRLSCSASGFIFYKNAMGWYRQAPGKERELVAAISGGGGSTYYADSVKGRFTISRDNAKNTVYLQMNSLKPDDTAVYYCATYSFRRTGWRYDYWGQGSQVTVSS | high polyreactivity
